Measurements as given in patent publication US20130210673A1 (published 2013).

T1: human C-reactive protein (human, UniProt P02741 19-224, biotinylated or conjugated to AlexaFluor488 for labeling)
T1 construct: Bought protein; also called CRP; C-RP
T1 sequence (looked up): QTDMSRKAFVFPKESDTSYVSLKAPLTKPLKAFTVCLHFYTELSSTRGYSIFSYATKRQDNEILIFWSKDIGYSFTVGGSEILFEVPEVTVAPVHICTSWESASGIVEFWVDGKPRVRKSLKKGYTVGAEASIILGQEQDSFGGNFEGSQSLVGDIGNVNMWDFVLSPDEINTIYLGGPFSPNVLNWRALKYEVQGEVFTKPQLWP


biological target: T2, streptavidin (UniProt P22629 37-163, limits assumed); assay: flow cytometry, equilibrium
T2 construct: Used as streptavidin-phycoerythrin in flow cytometry and as coated beads for YFP-SA-1; also called SA; streptavidin-phycoerythrin
Protocol: The corresponding mean fluorescence versus concentration data were fit to a monovalent binding isotherm to obtain the apparent KD. Dissociation rates of streptavidin-binding clones were measured in the presence of about 1 to about 2 μM biotin. Cells were labeled with 50 nM streptavidin-phycoerythrin for 30 minutes at room temperature. The cells were then pelleted, resuspended in PBS with biotin, and immediately analyzed by flow cytometry. Fluorescence data were collected continuously for about five minutes. The dissociation rate constants were then determined as described previously. See Daugherty, P. S., et al. (1998) Protein Eng. 11(9):825-832, which is herein incorporated by reference.

T2 sequence (P22629 37-163 limits assumed): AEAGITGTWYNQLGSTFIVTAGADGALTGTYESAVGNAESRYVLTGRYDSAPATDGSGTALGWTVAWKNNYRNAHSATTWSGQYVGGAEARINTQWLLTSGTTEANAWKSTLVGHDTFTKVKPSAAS

| Binder | binding result |
| --- | --- |
| ICSYVMYTTCFLRVY (insert only) [SEQ ID NO 234] | binds |
| RLEICQNVCYYLGTL (insert only) [SEQ ID NO 232] | binds |
| TVLICMNICWTGETQ (insert only) [SEQ ID NO 233] | binds |

biological target: T1, human C-reactive protein; assay: bacterial display selection

| Binder | binding result |
| --- | --- |
| EWACNDRGFNCQLQR (insert only) [SEQ ID NO 255] | binds |
| YPPRFQYYRFYYRGP (insert only) [SEQ ID NO 247] | binds |
| FPIYNQRGFITLASP (insert only) [SEQ ID NO 256] | binds |
| MIFNSRGFLSLMSSG (insert only) [SEQ ID NO 253] | binds |

biological target: T2, streptavidin; assay: bacterial display selection

| Binder | binding result |
| --- | --- |
| ADTICWYVCTISVHA (insert only) [SEQ ID NO 244] | binds |
| RLEICQNVCYYLGTL (insert only) [SEQ ID NO 235] | binds |
| ICSYVMYTTCFLRVY (insert only) [SEQ ID NO 237] | binds |
| IMMECFYVCTIANTQ (insert only) [SEQ ID NO 245] | binds |
| LPVWCVMHVCLTSSR (insert only) [SEQ ID NO 239] | binds |
| NEWYCQNVCERMPHS (insert only) [SEQ ID NO 241] | binds |
| YWVCMNVCMYYTARQ (insert only) [SEQ ID NO 238] | binds |
| TVLICMNICWTGETQ (insert only) [SEQ ID NO 236] | binds |
| TWVQCTMVCYGMSTT (insert only) [SEQ ID NO 242] | binds |
